Consider 1 molecule from patent US20030157533A1, “Nucleic acid labeling by Thermoanaerobacter thermohydrosulfuricus DNA polymerase I variants” (priority 2001, published 2003).

Where only a bound is given, the exact number is not on record here.

Common to all, as to assay type: biochemical
Experiment [1] has as its system Globin mRNA template annealed to P-33 labeled primer. Put plainly: Single nucleotide incorporation of Cy3.5-dCTP or dCTP on RNA template (reverse transcriptase reaction, FIG. 7). The method, then:
The experiment shown in FIG. 7 investigates the relative efficiencies of incorporation of dye-CTP (Cy3.5-dCTP) and dCTP. Three enzyme preparations ΔTts, ΔTts F412Y, ΔTtsF412YD426R were analyzed in this experiment.
(§1) Optimized 1×buffer compositions for Reverse Transcriptase (RNA dependent DNA Polymerase) and DNA Polymerase (DNA dependent DNA polymerase) reactions for all variants of Tts Pol I are as follows. Tris, pH 8.0 (50 mM), KCl (40 mM), MgCl2 (3 mM), DTT (1 mM), DNA or RNA template (as needed), primer (5 to 50 femto mols), enzyme 0.5 to 1 units, dNTP or dNTP analog (varying concentrations as needed). In standard synthesis reactions, when full-length synthesis is monitored, 50 uM of all 4 dNTPs are included. Typical reaction volume is 10 ul. Reaction temperature was kept between 37-60 C. depending on the experimental needs. Reaction time was limited to 10 minutes for single nucleotide incorporation studies. Time was varied as needed for the purpose of the experiments, sometimes up to 1 hour if longer extensions are monitored.
The experiment shown in FIG. 7 investigates the relative efficiencies of incorporation of dye-CTP (Cy3.5-dCTP) and dCTP. Three enzyme preparations ΔTts, ΔTtsFY, ΔTtsF412YD426R were analyzed in this experiment.
In FIG. 7, Globin mRNA served as the template. A 5′ P-33 labeled primer (DNA 25-mer) was annealed to the template. Reactions were performed with varying concentrations of either Cy3.5-dCTP or dCTP alone. Inclusion of only one dNTP allowed incorporation of the next correct nucleotide alone. The sequence of the template-primer that allowed for the examination of single nucleotide “C” incorporation is shown below.
Lanes 1,2,3 and 4 contain 20, 2, 0.2, and 0.02 uM of dNTP or dye-dNTP. Lane with no label has no enzyme, to show the integrity of the starting P-33 labeled primer. Quantification of the single nucleotide extension product is one way to tell if DR change to in the enzyme led to any consequence. “P” indicates a radio labeled primer. “P+1” represents the elongated product by a single nucleotide or nucleotide analog. P+1 migrates slowly with the dye-dNTP conjugate. Note that the migration of Cy3.5 dCMP containing bands travel slowly on the gel compared to dCTP extended products. […] Essentially, incorporation is achieved at lower concentrations (less than 10 times) of dye-dNTP compared to that of the wild type polymerase. It is evident that the DR enzyme was able to incorporate Cy3.5 dCTP at concentrations as low as 0.2 uM (Cy3.5 dCTP) or even lower. […] In this experiment the template-primer is a mRNA annealed to radio labeled primer. Extension is monitored qualitatively as P+1 for the natural nucleotides and P+1* for dye labeled nucleotide. This is a promising first observation for potential use in microarray applications for cDNA probe labeling.

For experiment [2], the system named is human skeletal muscle mRNA. Put plainly: cDNA labeling using Cy3 and Cy5-dUTP, microarray (FIG. 10). The following applies: Cy3-dUTP or Cy5-dUTP, 50 degrees C. The method, then:
(§2) A typical 20 μl reaction Cy3 or Cy5 reaction had 1 μg of human skeletal muscle mRNA, oligo dT(25) and random nonamer primers and TtsFYDR polymerase enzyme in 1×reaction buffer (50 mM Tris, pH 8.0, 1 mM DDT, 40 mM KC, 100 uM dA,G and CTP and 50 um each of TTP and Cy3-dUTP or Cy5-dUTP depending on the reaction). Control mRNAs (APBiotech Inc.) of known sequence compositions were included in various concentrations to serve as dynamic range and gene expression ratio controls. Tts reactions were carried out at temperatures from 50 degrees C. Template RNA was hydrolyzed by alkali treatment and neutralized with HEPES.
(§3) Probes were purified using MultiScreen filters (Millipore) and quantified by spectrophotometry. Glass slides containing human cDNA gene targets were hybridized with equal amounts (30 pmol each) of Cy3 and Cy5 labeled cDNA probes. Slides were scanned using a GenePix® (Axon) scanner and quantified using ImageQuant software.

The test system of experiment [3] is human skeletal muscle mRNA. Put plainly: cDNA labeling using Cy3 and Cy5-dCTP, microarray (FIG. 9). The following applies: Cy3-dCTP or Cy5-dCTP, 50 degrees C. The method, then:
as §2, with “TTP” for “CTP”, “CTP” for “TTP”, “Cy3-dCTP” for “Cy3-dUTP”, “Cy5-dCTP” for “Cy5-dUTP”
as §3

Experiment [4] deals with human skeletal muscle mRNA. In words: cDNA labeling using Cy3/Cy5-dCTP over a wide reaction temperature range, microarray (FIGS. 14a and b). The following applies: reaction temperatures 37, 42, 45, 50, 55, 60 and 65 degrees; normalization factor of 2. The method, then:
A 20 μl reaction Cy3 or Cy5 reaction had 1 μg of human skeletal muscle mRNA, oligo dT(25) and random nonamer primers and TtsFYDR polymerase enzyme in 1×reaction buffer (50 mM Tris, pH 8.0, 1 mM DDT, 40 mM KC, 100 uM dA,G and TTP and 50 um each of CTP and Cy3-dCTP or Cy5-dCTP depending on the reaction). Control mRNAs (APBiotech Inc.) of known sequence compositions were included in various concentrations to serve as dynamic range and gene expression ratio controls. Tts reactions were carried out at temperatures from 37, 42, 45, 50, 55, 60 and 65 degrees. For Superscript II, cDNA synthesis reactions were carried out at 42 C. (Life Technologies). Template RNA was hydrolyzed by alkali treatment and neutralized with HEPES.
Probes were purified using MultiScreen filters (Millipore) and quantified by spectrophotometry. Glass slides containing human cDNA gene targets were hybridized with equal amounts (30 pmol each) of Cy3 and Cy5 labeled cDNA probes. Slides were scanned using a GenePix® (Axon) scanner and quantified using ImageQuant software. A normalization factor of 2 (due to differences in the excitation efficiencies of Cy3 and Cy5) was applied to the observed ratio of raw flourescence signal. The figure illustrates precise determination of gene expression differences in Cy3 and Cy5 reactions.

Experiment [5] deals with defined DNA template-DNA primer. Put plainly: Single nucleotide incorporation of dye-dCTP during DNA dependent DNA synthesis (FIG. 13). The method, then: as §1
Primer extension was monitored using a defined DNA template-DNA primer.
In this experiment the relative efficiencies of incorporation of dye-CTP (Cy3.5-dCTP) was investigated. Three enzyme preparations were tested ΔTts, ΔTtsF412Y, and ΔTtsF412YD426R
Defined DNA shown below served as the template. A P-33 labeled primer (DNA 25 mer) was annealed to the template. Reactions were performed with varying concentrations of either Cy3.5-dCTP or dCTP alone. Inclusion of only one dNTP allowed incorporation of the next correct nucleotide alone. The sequence of the template-primer that allowed for the examination of single nucleotide “C” incorporation is shown below.
Lanes 1, 2, 3, 4 and 5 contain 20, 2, 0.2, 0.02 and 0 uM dye-dCTP. Lane 5 has no enzyme, to show the integrity of the starting p-33 labeled primer. Quantification of the single nucleotide extension product is one way to tell if DR change in the enzyme led to any consequence. “P” indicates a radio labeled primer. “P+1” represents the elongated product by a single nucleotide or nucleotide analog. P+1 migrates slowly with the dye-dNTP conjugate. Note that the migration of Cy3.5-dCTP containing band travel slowly on the gel compared to dCMP extended products. […] P+1 product is achieved between 10-100 fold less concentration of dye-dCTP with the enzyme having the DR change. Essentially, incorporation is achieved at a much lower concentration of dye-dNMP compared to the wild type enzyme. It is evident that the DR enzyme was able to incorporate Cy3.5-dCTP at concentrations as low as 0.2 uM or even lower.

B1: ΔTtsF412YD426R: exonuclease deficient truncated Tts DNA polymerase I with F412Y and D426R changes (SEQ ID No. 7) (protein, listed as Thermoanaerobacter thermohydrosulfuricus)
chain: MYKFLIIDGSSLMYRAYYALPMLTTSEGLPTNALYGFTMMLIKLIEEEKPDYIAIAFDKKAPTFRHKEYQDYKATRQAMPEELAEQVDYLKEIIDGFNIKTLELEGYEADDIIGTISKLAEEKGMEVLVVTGDRDALQLVSDKVKIKISKKGITQMEEFDEKAILERYGITPQQFIDLKGLMGDKSDNIPGVPNIGEKTAIKLLKDFGTIENLIQNLSQLKGKIKENIENNKELAIMSKRLATIKRDIPIEIDFEEYKVKKFNEEKLLELFNKLEFFSLIDNIKKESSIEIVDNHKVEKWSKVDIKELVTLLQDNRNIAFYPLIYEGEIKKIAFSFGKDTVYIDVFQTEDLKEIFEKEDFEFTTHEIKDFLVRLSYKGIECKSKYIDTAVMAYLLNPSESNYDLDRVLKKYLKVDVPSYEGIFGKGRDKKKIEEIDENILADYICSRCVYLFDLKEKLMNFIEEMDMKKLLLEIEMPLVEVLKSMEVSGFTLDKEVLKELSQKIDDRIGEILDKIYKEAGYQFNVNSPKQLSEFLFEKLNLPVIKKTKTGYSTDSEVLEQLVPYNDIVSDIIEYRQLTKLKSTYIDGFLPLMDENNRVHSNFKQMVTATGRISSTEPNLQNIPIREEFGRQIRRAFIPRSRDGYIVSADYSQIELRVLAHVSGDEKLIESFMNNEDIHLRTASEVFKVPMEKVTPEMRRAAKAVNYGIIYGISDYGLSRRLKISRKEAKEYINNYFERYKGVKDYIEKIVRFAKENGYVTTIMNRRRYIPEINSRNFTQRSQAERLAMNAPIQGSAADIIKMAMVKVYNDLKKLKLKSKLILQVHDELVVDTYKDEVDIIKKILKENMENVVQLKVPLVVEIGVGPNWFLAK
Consider B1, for which the “concentration of Cy3.5 dCTP at which the enzyme was able to incorporate” value in experiment [1] (10 min single nucleotide incorporation) was at most 0.2 µM. For the same molecule, in experiment [1] (dCTP, compared with enzymes without the DR change), the “fold less concentration of dCTP at which P+1 product is achieved” value is recorded as 10-100 fold. For the same molecule, in experiment [1] (dye-CTP (Cy3.5-dCTP)), the “lower concentration of dye-dNTP at which incorporation is achieved compared to wild type polymerase” value was “less than 10 times”. Moreover, the “incorporation of Cy3 versus Cy5 in cDNA probes” value in experiment [2] is “near even incorporation of Cy3 and Cy5”; in experiment [3] it was “near even incorporation of Cy3 and Cy5”. In experiment [4], the “normalized observed ratios of Cy3/Cy5 signal versus target ratios” value was “very close to the target ratios”. The “concentration of Cy3.5-dCTP at which the enzyme was able to incorporate” value in experiment [5] was at most 0.2 µM. The “fold less concentration of dye-dCTP at which P+1 product is achieved” value in experiment [5] (dye-dCTP, compared with enzymes without the DR change) is 10-100 fold.
